# According to the DeepSol protein solubility set:
# Experiment: soluble on expression in E. coli; label from the status in PepcDB or PDB records
row,Sequence,soluble on expression in E. coli
1,YCKTIPMPDLAYSEISVIGKLIRALPEPCALHLANSSTVRYAQLFTVPPQVEICCNRGVNGIEGSLSTAIGYAAASSKLNFIIIGDLSFFYDMNALWNQNYGANIRILLLNNEGGEIFHTLPGMDKSSRSREFITAEHYTTAKGWAEERGFIYMKVTGEEELEEAMQPFTSPETRMQPMLLEVFTDKEKDTTLLREYYHGLKNKNE,not soluble
2,MSYNEKSSKSIHEKRAIAKYAASLIEDGDCIFVDAGTTTYELIDYLEGKDILVVSNGLSHIDTLIQKNIKCYVIGGNIKISTKAITGCDALMCLSKFRFDKCFIGANGVHHTYGLTTPDTEEAILKECAINNSRKAYVLADDSKFGEISTIKFSDINKCVIITNEKPKDLEHHHHHH,not soluble
3,MKMMDANEIISFIQNSTKSTPVKVYVKGELEGINFGESAKAFINGNTGVVFGEWSEIQTAIEENQSKIEDYVVENDRRNSAIPMLDL,not soluble
4,MSNLKQLRTRIKSVKSTQKITKAMQLVSASKMAKIKSQIANSNFYIEAVSKMMSAILSIDMYELSIEEQKFFNTVPNKANLLIVMTSQRGLCGTFNYSIIKQVKNDIKELENKGEQIKLIIIGKKGYEALKRQYVNYIDSYFELPKIHDENLMLQVKQKIMSAVENLEVSNCVIYFNKFKNAMTQIMTRQQILPVAKYQDDSMIDNPIVNLVGFGYKERGVKPINNRRATSDIVGESKSIDYNYEYEGESLISNLINLYVNSQINYALLQSRASEEGARMTAMENATNNANDLISKLVLKLNRSRQAIITTELIEIIAGSEVV,not soluble
5,MSTHFDVIVVGAGSMGMAAGYQLAKQGVKTLLVDAFDPPHTNGSHHGDTKIIRHAYGEGREYVPLALRSQELWYELEKETHHKIFTKTGVLVFGPKGESAFVAETMEAAKEHSLTVDLLEGDEINKRWPGITVPENYNAIFEPNSGVLFSENCIRAYRELAEARGAKVLTHTRVEDFDISPDSVKIETANGSYTADKLIVSMGAWNSKLLSKLNLDIPLQPYRQVVGFFESDESKYSNDIDFPGFMVEVPNGIYYGFPSFGGCGLKLGYHTFGQKIDPDTINREFGVYPEDESNLRAFLEEYMPGANGELKRGAVCMYTKTLDEHFIIDLHPEHSNVVIAAGFSGHGFKFSSGVGEVLSQLALTGKTEHDISIFSINRPALKESLQKTTI,soluble
6,MGHHHHHHSHMLREPGDPEKLGEFLQKDNISVHYFCLILSSKLPQRGQSNRGSMDFCLKTSKRRQPGLLGRSALCARKRELLSTARRISASETSICLVAKKGVAFHNFLESTNHFVTNIAQHRTSNMGMWGRKAASYVVKTYPNRVLRTSRARVVVKPSTTASAYRNMPTHQQSISSNVHSVTIERVSSRNAENGNPYSRQEVVPHSVCYVRIPRNPQGLLLS,not soluble
7,GHWNQPWKCLVDHDGVFDNRMMGYATEELWFSEWENGGTPWENPAGYEQFNPVLHVDKWRVPMLVIHGQKDFRIPVEQGLAAFGALQRKGIESKLLYFHDENHWVLNPQNSIQWHDTVNAWLKKYIG,not soluble
8,MPDGTIDGGHPQRPASPRLRSPLLRLATWNVNSIRTRLDRVLDWLGRADVDVLAMQETKCPDGQFPALPLFELGYDVAHVGFDQWNGVAIASRVGLDDVRVGFDGQPSWSGKPEVAATTEARALGATCGGIRVWSLYVPNGRALDDPHYTYKLDWLAALRDTAEGWLRDDPAAPIALMGDWNIAPTDDDVWSTEFFAGCTHVSEPERKAFNAIVDAQFTDVVRPFTPGPGVYTYWDYTQLRFPKKQGMRIDFILGSPALAARVMDAQIVREERKGKAPSDHAPVLVDLHAG,not soluble
9,MMSAYNKLVRDRVPEKILMSGKTYTAQKLTGQAYIQALAKIGTEEIREFASMKEREHALDSLADALEVIISLARAEGASIEDVERLRKQKEIERGGFERGIYLLDVSEE,not soluble
10,MKQNKLHYTTMIMTQFPDISIQSVESLGEGFRNYAILVNGDWVFRFPKSQQGADELNKEIQLLPLLVGCVKVNIPQYVYIGKRSDGNPFVGYRKVQGQILGEDGMAVFPDDAKDRLALQLAEFMNELSAFPVETAISAGVPVTNLKNKILLLSEAVEDQVFPLLDESLRDYLTLRFQSYMTHPVYTRYTPRLIHGDLSPDHFLTNLNSRQTPLTGIIDFGDAAISDPDYDYVYLLEDCGELFTRQVMAYRGEVDLDTHIRKVSLFVTFDQVSYLLEGLRARDQDWISEGLELLEEDKANNFGANSA,not soluble
11,MLKFRTVHGGLRLLGIRRTSTAPAASPNVRRLEYKPIKKVMVANRGEIAIRVFRACTELGIRTVAIYSEQDTGQMHRQKADEAYLIGRGLAPVQAYLHIPDIIKVAKENNVDAVHPGYGFLSERADFAQACQDAGVRFIGPSPEVVRKMGDKVEARAIAIAAGVPVVPGTDAPITSLHEAHEFSNTYGFPIIFKAAYGGGGRGMRVVHSYEELEENYTRAYSEALAAFGNGALFVEKFIEKPRHIEVQILGDQYGNILHLYERDCSIQRRHQKVVEIAPAAHLDPQLRTRLTSDSVKLAKQVGYENAGTVEFLVDRHGKHYFIEVNSRLQVEHTVTEEITDVDLVHAQIHVAEGRSLPDLGLRQENIRINGCAIQCRVTTEDPARSFQPDTGRIEVFRSGEGMGIRLDNASAFQGAVISPHYDSLLVKVIAHGKDHPTAATKMSRALAEFRVRGVKTNIAFLQNVLNNQQFLAGTVDTQFIDENPELFQLRPAQNRAQKLLHYLGHVMVNGPTTPIPVKASPSPTDPVVPAVPIGPPPAGFRDILLREGPEGFARAVRNHPGLLLMDTTFRDAHQSLLATRVRTHDLKKIAPYVAHNFSKLFSMENWGGATFDVAMRFLYECPWRRLQELRELIPNIPFQMLLRGANAVGYTNYPDNVVFKFCEVAKENGMDVFRVFDSLNYLPNMLLGMEAAGSAGGVVEAAISYTGDVADPSRTKYSLQYYMGLAEELVRAGTHILCIKDMAGLLKPTACTMLVSSLRDRFPDLPLHIHTHDTSGAGVAAMLACAQAGADVVDVAADSMSGMTSQPSMGALVACTRGTPLDTEVPMERVFDYSEYWEGARGLYAAFDCTATMKSGNSDVYENEIPGGQYTNLHFQAHSMGLGSKFKEVKKAYVEANQMLGDLIKVTPSSKIVGDLAQFMVQNGLSRAEAEAQAEELSFPRSVVEFLQGYIGVPHGGFPEPFRSKVLKDLPRVEGRPGASLPPLDLQALEKELVDRHGEEVTPEDVLSAAMYPDVFAHFKDFTATFGPLDSLNTRLFLQGPKIAEEFEVELERGKTLHIKALAVSDLNRAGQRQVFFELNGQLRSILVKDTQAMKEMHFHPKALKDVKGQIGAPMPGKVIDIKVVAGAKVAKGQPLCVLSAMKMETVVTSPMEGTVRKVHVTKDMTLEGDDLILEIE,soluble
12,MRILIASQPIAGHVLPLREIARELARRGHELRWYTGRKFRPQVEAAGAVWEGFVHARDYDDANFDAAFPGRSARRGLAQLLFDLRHVFVGQMEGQFYDLRDLERRWRPDVVLADQTVGAALLREELGGPPVALLGVLPLGIASRDTAPFGLGLAPLGGAAGQLRNRALQVLTERVVFRGISAQLADLCTWLGLPARSFAPPVAPSLMLQPSVPRLEYLRRDLPPQVRFIGPLVLPAGEFTPPAWWNDILTAERPVVLVTQGTLATRPEQLLRPALAALADEDVLVVAAGVAPERLGPLPANARAAAFVPFTALLPHVAVSLTNGGYGGTVQALSHGVPCVVAGRSEDKAEVAARVAYSGAGLNLGTATPSPARIRAAVRRVLREPAFREQAGELGHELRQHDAPREAADWLETLGGKKLEHHHHHH,not soluble
13,MGSDKIHHHHHHMKKKTTTVYVDKQYKLTRDVAPLSFMLPIKHSRRFPLLHFDESTGTNRELRYARNQKSPFVDKQDGNALLEPVIFEDGFLFVKKENQVLQQFLHYHPLNGTKFVEVDKSKDAAQVVDQLMIEADALVEAKKLSLEQLENVCRVLFNTNVDKLTTAEMKRDVLVFAKNNPQDFLDICSDPELKIMGMVQSFFDKGHLAYRKSKKEVWYNTPTNKTKMLNVPFGADGLDLVVSYLQSDEGIDVLKHLETL,not soluble
14,MGSDKIHHHHHHMKIKAIITGATGMVGEGVMHECLLNPDVEEVLIINRKPSGFTHAKLKEIIHTDFFNLAPVEQQLAGYNACYFCLGVSSIGMNEADYTKMTYTLTMHVAETLSRLNKDMTFCYVSGASTDSTEKGKSMWARVKGKTENDLTRLPFKDVYNFRPGYMQPTPGLKNTQKYYTYMSWMYPFLKLVFKNYVSTLKDVGLAMIRVTLFGHNKQVLEVPDIKALAKKTQFV,not soluble
15,MSTIKIVPLGGVRENGKNMYVAEVEDEIFVLDCGLQYPENELLGIDVVIPDFTYLEENSERIAGVFLTHGHADAIGALPYLLSKIQVPVFGTELTIELAKLSVNSHAETKKFKDFHVIDPHTEIDFGQATVSFFKTTHTIPDSIGVSIKTKEGNIVYTGDFKFDQSAIEMYQTDYGRLAEIGKEGVLALLSDSSNAENPAQVASEAQIADEVFDTIRYWEGRIIVACVASNLQRVQQVLNAADRSGRKVVLTGQDFERIIRTAMKLEKLQLPSEDLLVKPKEMKKYAPEQLLILETGRMGEPIKSLQKMANNTHGVVRIEEGDLVYITTTPTTAMETTVAKTEDIVYRAGATVKQISDNLRVSGHANPNDLQLMLNLMKPKYFIPVQGEYRQLAAHADLAHEIGMPYKDIFITGRGDILEYTKGRMSVAGSTTAENIMIDGIGVGDIGNIVLRDRRILSEDGIFVAVVTINRREKRIVSPAKITSRGFVYVKTSKDLMKESSNIVTEIVEKHLESDDFEWSKLKQEIRENLSRYLFEQTKRRPVILPVIMEATQRKRPKNNA,not soluble
16,MSLTQVPAGQFTATKNLRPAAKPGKDVVLRVYSDFQCPYCQKLELETMPALLRALPDDVRVEFHQFPLEQIHPLARPAAEASECAAQQGRFWDYKDALFRDRSWLQNNPNETFLRLAGDLKLDPGKFKDCLALRGGKAGVDAGLAEAQQLGLNATPTVFVDGYRVGNPFDTAAVLQLIDVARATREGHHHHHH,soluble
17,MPLEASELKPTAGPLEASELKPTAGPLEASELKPTAGPLEASELKPTAGPLEASELKPTAGPLEASELKPTAGPLEASELKPTAGMKLKGRGIVKGVAEGELVVSRKPLSFLGGVDPNTGIITDPESDIQGEKITGKILAFPRGKGSTVGSYVIYALAKKGTGPKAIIVEEAEAIVAVGAIIAGIPLVTGIDISKLKSGMKVRVDGERGEVEIIAQGDLLEHHHHHH,not soluble
18,MSSDNEIEDLKRAFIFALRKKFPRDSSSSIAIATVNLIRKIIFRENPKTMNDLQVSLANHCKKLHGAERSELIIINIGLMITKLARDEVLQKKGGGEPEPLYTLWRDDDETIKKLKTADMKKIKKDLQASIKELVTEIESSRECIASQSTELLFNNDVVLVHSLRSSQTMHNFLSHAVKSGRKHRVIDVVDEEEHIESTPDFATAIELYEVASKMPEASKVVLVAAAYFPDGSCLVPAGGHQIALLAKRHCVPVYVLAPFYKLCPFFMTNPDSLHTFRSNSLPFDLSAKSAGLVDCLHPAFDCLQSDLVTLFVSNTSCVIPSHVNRLKEDYYHSQDIADY,not soluble
19,MSRGTQACINAAHTVSGIIGDLDTTIMFATAGTLHSDGDGSFADHREHILQTAKALVEDTKVLVTGAAGTQDQLANAAQNAVSTITQLAEAVKRGACSLGSTQPDSQVMVINAVKDVASALGDLINCTKLASGKSINDPSMQDLKESARVMVLNVSSLLKTVKAVEDEHTRGTRAMEATVEAISQEIRALEHHHHHHHH,soluble
20,GIDIELQMLGERLLEGKIGSIVAIEPSTGEILCMVSAPTFDPRLMVGRQRGKNHLELARDSWKPLLNRSIMGQFPPGSTFKTTQALTFLQEGIITPQTAYSCYHGFVYAGLRVGCHSHGSPLPLVPAIATSCNGYFCWGLFHMIGAKKKYGSVQTAMNTWRDYMVSMGFGYPLGVDLPGEKRGMIPNAAYYDKNYRGSWNGLTIISISIGQGEVTATPLQIANLGATIANRGYYITPHVVKEVEDEPLDTLYTTKRYTKVSREHYQTVVEGMRSAVLGGTCRNANIPGIEVCGKTGTAQNRGKDHSAFMGFAPMNDPKIAVVVYVENGGWGATYGVPIGALIMEKYLKGELSPESEAKAAEIQNRRIDYGIHER,not soluble
